Biological target: the molecule itself
Assay: SEC + SEC-MALS

Row | Protein | stoichiometry N
1 | PcpF, S-glutathionyl-(chloro)hydroquinone reductase of Sphingobium chlorophenolicum ATCC 39723 (enzyme, UniProt Q8KN33 1-313, looked up) MGLLIDGVWRDAWYDTKSSGGRFVRKESQYRGGLDAGFRGEPGRYHLYAGFACPWAHRVLIMRALKGLEEMISVSMVNAYMGENGWTFLPGDDVVPDSINGADYLYQVYTAADPTYTGRVTIPILWDKVEKRILNNESSEIIRILNSAFDDVGALPGDYYPAEFRPEIDRINARVYETLNNGVYRSGFATTQEAYEEAFYPLFDTLDWLEEHLTGREWLVGDRLTEADIRLFPTLVRFDAIYHGHFKCNLRRIADYPNLSRLVGKLASHERVAPTINLRHAKAHYYGSHPSVNPTGIVPVGPAQPLPGLTLQS | 2
2 | ECM4 (extracellular mutant 4) of Saccharomyces cerevisiae (enzyme, S. cerevisiae, UniProt P36156 1-370, looked up) MSKQWASGTNGAFKRQVSSFRETISKQHPIYKPAKGRYWLYVSLACPWAHRTLITRALKGLTSVIGCSVVHWHLDEKGWRFLDMEKQLEDSEDFLEHWHDVAGGIRTAKEDSSKSFAEIKNDSQRFMVDATNEPHYGYKRISDLYYKSDPQYSARFTVPVLWDLETQTIVNNESSEIIRILNSSAFDEFVDDDHKKTDLVPAQLKTQIDDFNSWVYDSINNGVYKTGFAEKAEVYESEVNNVFEHLDKVEKILSDKYSKLKAKYGEEDRQKILGEFFTVGDQLTEADIRLYTTVIRFDPVYVQHFKCNFTSIRAGYPFIHLWVRNLYWNYDAFRYTTDFDHIKLHYTRSHTRINPLGITPLGPKPDIRPL | 2
